For experiment [1], the target named is PD-L1. Briefly: Octet binding kinetics.
The target of experiment [2] is PD-L1. Briefly: Octet (BLI) binding kinetics of the trivalent PD-L1 trap with PD-L1.
Experiment [3] deals with PD-L1. Kind of experiment: Octet (BLI); compared with the endogenous PD-1/PD-L1 interaction.

Chain of PD-L1 (chain, as listed by the source): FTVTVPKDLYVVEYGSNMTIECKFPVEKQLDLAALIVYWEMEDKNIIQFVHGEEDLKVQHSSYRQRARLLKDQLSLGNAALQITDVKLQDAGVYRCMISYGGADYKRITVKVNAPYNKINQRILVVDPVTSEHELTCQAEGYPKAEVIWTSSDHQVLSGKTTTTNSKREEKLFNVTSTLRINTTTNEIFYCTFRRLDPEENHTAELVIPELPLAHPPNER

B1: trivalent PD-L1 trap (PD-1 extracellular domain - flexible linker - CMP-1 trimerization domain fusion, self-assembled trimer) (other)
chain: GSGPPTFSPALLVVTEGDNATFTCSFSNTSESFVLNWYRMSPSNQTDKLAAFPEDRSQPGQDSRFRVTQLPNGRDFHMSVVRARRNDSGTYLCGAISLAPKAQIKESLRAELRVTERRAEGPQPQPKPQPKPEPEPQPQGGSEEDPCACESILKFEAKVEGLLQALTRKLEAVSGRLAVLENRIIAAAGAPVPYPDPLEPRGGSHHHHHH
notes: also called trimeric trap; trivalent protein
Regarding B1, the Kd is roughly 0.0162 nM with PD-L1 [1] and roughly 0.016 nM with PD-L1 [2]. For the same molecule, the “fold higher than between endogenous PD-1 and PD-L1” value with PD-L1 [3] was 10000 fold.

Values taken from US20190381184A1 (UNIVERSITY OF NORTH CAROLINA AT CHAPEL HILL, published 2019).
